Experimental data as given in patent US20210355194A1 (TWIST BIOSCIENCE, published 2021).

B1: variant 6-97 (Fc fusion)
VHH: EVQLVESGGGLVQPGGSLRLSCAASGFTFSSLAMGWFRQAPGKEREFVAAITWSGDITNYADSVKGRFTITADNSKNTAYLQMNSLKPEDTAVYYCLRLSSSGFDHWGQGTLVTVSS
B2: variant 6-66 (Fc fusion)
VHH: EVQLVESGGGLVQPGGSLRLSCAASGLTFSLFAMGWFRQAPGKERELVAAISSGGSTDYADSVKGRFTISADNSKNTAYLQMNSLKPEDTAVYYCARGNTKYYYDSSGYSSAFDYWGQGTLVTVSS
B3: variant 6-41 (Fc fusion)
VHH: EVQLVESGGGLVQPGGSLRLSCAASGFTFSTSWMGWFRQAPGKEREFVASINEYGGRNYADSVKGRFTISADNSKNTAYLQMNSLKPEDTAVYYCAGLHYYYDSSGYNPTEYYGMDVWGQGTLVTVSS
B4: variant 6-54 (Fc fusion)
VHH: EVQLVESGGGLVQPGGSLRLSCAASGFEFENHWMGWFRQAPGKEREYVAHITAGGLSNYADSVKGRFTISADNSKNTAYLQMNSLKPEDTAVYYCGRHWGIYDSSGFSSFDYWGQGTLVTVSS
B5: variant 6-84 (Fc fusion)
VHH: EVQLVESGGGLVQPGGSLRLSCAASGFTPDDYAMGWFRQAPGKEREFVAAINSGGSYTYYADSVKGRFTISADNSKNTAYLQMNSLKPEDTAVYYCARDRGPWGQGTLVTVSS
B6: variant 6-45 (Fc fusion)
VHH: EVQLVESGGGLVQPGGSLRLSCAASGNMFSINAMGWFRQAPGKEREFVTLISWSSGRTSYADSVKGRFTISADNSKNTAYLQMNSLKPEDTAVYYCASLGYCSGGSCFDYWGQGTLVTVSS
B7: variant 6-99 (Fc fusion)
VHH: EVQLVESGGGLVQPGGSLRLSCAASGIPFRSRTMGWFRQAPGKEREFVAGISRSGASTAYADSVKGRFTISADNSKNTAYLQMNSLKPEDTAVYYCTHANDYGDYWGQGTLVTVSS
B8: variant 6-40 (Fc fusion)
VHH: EVQLVESGGGLVQPGGSLRLSCAASGFTFSDYWMGWFRQAPGKERELVARVWWNGGSAYYADSVKGRFTISADNSKNTAYLQMNSLKPEDTAVYYCAREVLRQQVVLDYWGQGTLVTVSS
B9: variant 6-68 (Fc fusion)
VHH: EVQLVESGGGLVQPGGSLRLSCAASGFTLSDRAMGWFRQAPGKEREYVAHITAGGLSNYADSVKGRFTISADNSKNTAYLQMNSLKPEDTAVYYCVHLASQTGAGYFDLWGQGTLVTVSS
B10: variant 6-42 (Fc fusion)
VHH: EVQLVESGGGLVQPGGSLRLSCAASGDTYGSYWMGWFRQAPGKEREFVAVITSGGSTNYADSVKGRFTISADNSKNTAYLQMNSLKPEDTAVYYCTHVQNSYYYAMDVWGQGTLVTVSS
B11: variant 6-72 (Fc fusion)
VHH: EVQLVESGGGLVQPGGSLRLSCAASGSTLSINAMGWFRQAPGKEREFVAAIDWSGGSTAYADSVKGRFTISADNSKNTAYLQMNSLKPEDTAVYYCARDSSATRTGPDYWGQGTLVTVSS
B12: variant 6-103 (Fc fusion)
VHH: EVQLVESGGGLVQPGGSLRLSCAASGRTSSPIAMGWFRQAPGKEREPVAVRWSDDYTYYADSVKGRFTISADNSKNTAYLQMNSLKPEDTAVYYCAKKLGGYYAFDIWGQGTLVTVSS
B13: variant 6-46 (Fc fusion)
VHH: EVQLVESGGGLVQPGGSLRLSCAASGLTFSAMGWFRQAPGKEREFVALIRRDGSTIYADSVKGRFTISADNSKNTAYLQMNSLKPEDTAVYYCAALGILFGYDAFDIWGQGTLVTVSS
B14: variant 6-65 (Fc fusion)
VHH: EVQLVESGGGLVQPGGSLRLSCAASGLPFSTLHMGWFRQAPGKEREFVASLSIFGATGYADSVKGRFTISADNSKNTAYLQMNSLKPEDTAVYYCWMYYYDSSGYYGNYYYGMDVWGQGTLVTVSS
B15: variant 6-49 (Fc fusion)
VHH: EVQLVESGGGLVQPGGSLRLSCAASGSTVLINAMGWFRQAPGKEREFVAAISWSPGRTDYADSVKGRFTISADNSKNTAYLQMNSLKPEDTAVYYCARDCSGGSCYSGDYWGQGTLVTVSS
B16: variant 6-43 (Fc fusion)
VHH: EVQLVESGGGLVQPGGSLRLSCAASGRTFSSYAMMGWFRQAPGKEREFVASVNWDASQINYADSVKGRFTISADNSKNTAYLQMNSLKPEDTAVYYCTTLGAVYFDSSGYHDYFDYWGQGTLVTVSS
B17: variant 6-67 (Fc fusion)
VHH: EVQLVESGGGLVQPGGSLRLSCAASGSFSNYAMGWFRQAPGKEREFVAAISSSGALTSYADSVKGRFTISADNSKNTAYLQMNSLKPEDTAVYYCWIVGPGPLDGMDVWGQGTLVTVSS
B18: variant 6-75 (Fc fusion)
VHH: EVQLVESGGGLVQPGGSLRLSCAASGGTFSTYWMGWFRQAPGKEREFVAAISRSGGNTYYADSVKGRFTISADNSKNTAYLQMNSLKPEDTAVYYCVRHSGTDGDSSFDYWGQGTLVTVSS
B19: variant 6-47 (Fc fusion)
VHH: EVQLVESGGGLVQPGGSLRLSCAASGRTFSMHAMGWFRQAPGKERELVASITYGGNINYADSVKGRFTISADNSKNTAYLQMNSLKPEDTAVYYCAKEGYYDSTGYRTYFQQWGQGTLVTVSS
B20: variant 6-62 (Fc fusion)
VHH: EVQLVESGGGLVQPGGSLRLSCAASGSTFSGNWMGWFRQAPGKEREFVAVISWTGGSTYYADSVKGRFTISADNSKNTAYLQMNSLKPEDTAVYYCATHNSLSGFDYWGQGTLVTVSS
B21: variant 6-90 (Fc fusion)
VHH: EVQLVESGGGLVQPGGSLRLSCAASGFPFSIWPMGWFRQAPGKEREFVAAVRWSSTYYADSVKGRFTISADNSKNTAYLQMNSLKPEDTAVYYCATGECDGGSCSLAYWGQGTLVTVSS
B22: variant 6-79 (Fc fusion)
VHH: EVQLVESGGGLVQPGGSLRLSCAASGSISSIDYMGWFRQAPGKEREGVSWISSSDGSTYYADSVKGRFTISADNSKNTAYLQMNSLKPEDTAVYYCARSPSFSQIYYYYYMDVWGQGTLVTVSS
B23: variant 6-102 (Fc fusion)
VHH: EVQLVESGGGLVQPGGSLRLSCAASGSSFSAYAMGWFRQAPGKEREFVSAIDSEGTTTYADSVKGRFTISADNSKNTAYLQMNSLKPEDTAVYYCAGDYNFWSGFDHWGQGTLVTVSS
B24: variant 6-82 (Fc fusion)
VHH: EVQLVESGGGLVQPGGSLRLSCAASGSSLDAYGMGWFRQAPGKEREFVAAISWGGGSIYYADSVKGRFTISADNSKNTAYLQMNSLKPEDTAVYYCARLSQGMVALDYWGQGTLVTVSS
B25: variant 6-44 (Fc fusion)
VHH: EVQLVESGGGLVQPGGSLRLSCAASGGTFGVYHMGWFRQAPGKEREFIGRITWTDGSTYYADSVKGRFTISADNSKNTAYLQMNSLKPEDTAVYYCFGLLEVYDMTFDYWGQGTLVTVSS
B26: variant 6-70 (Fc fusion)
VHH: EVQLVESGGGLVQPGGSLRLSCAASGFNLDDYADMGWFRQAPGKEREFVAAIGWGGGSTRYADSVKGRFTISADNSKNTAYLQMNSLKPEDTAVYYCAREILWFGEFGEPNVWGQGTLVTVSS
B27: variant 6-81 (Fc fusion)
VHH: EVQLVESGGGLVQPGGSLRLSCAASGFIGNYHAMGWFRQAPGKEREFVAAVTWSGGTTNYADSVKGRFTISADNSKNTAYLQMNSLKPEDTAVYYCAREGYYYDSSGYPYYFDYWGQGTLVTVSS
B28: variant 6-71 (Fc fusion)
VHH: EVQLVESGGGLVQPGGSLRLSCAASGITFSNDAMGWFRQAPGKEREFVAIITSSDTNDTTNYADSVKGRFTISADNSKNTAYLQMNSLKPEDTAVYYCARLHYYDSSGYFDYWGQGTLVTVSS
B29: variant 6-74 (Fc fusion)
VHH: EVQLVESGGGLVQPGGSLRLSCAASGFAFGDSWMGWFRQAPGKERELVAAITSGGSTDYADSVKGRFTISADNSKNTAYLQMNSLKPEDTAVYYCARGLLWFGELFGYWGQGTLVTVSS
B30: variant 6-63 (Fc fusion)
VHH: EVQLVESGGGLVQPGGSLRLSCAASGQTFNMGWFRQAPGKEREFVAAIGSGGSTSYADSVKGRFTISADNSKNTAYLQMNSLKPEDTAVYYCWRLGNDYFDYWGQGTLVTVSS
notes: VHH-Fc
B31: variant 6-57 (Fc fusion)
VHH: EVQLVESGGGLVQPGGSLRLSCAASGLTFDDHSMGWFRQAPGKEREFVAAVPLSGNTYYADSVKGRFTISADNSKNTAYLQMNSLKPEDTAVYYCASFSGGPADFDYWGQGTLVTVSS
B32: variant 6-52 (Fc fusion)
VHH: EVQLVESGGGLVQPGGSLRLSCAASGDTYGSYWMGWFRQAPGKEREVVAAITSGGSTVYADSVKGRFTISADNSKNTAYLQMNSLKPEDTAVYYCARVDSRFDYWGQGTLVTVSS
B33: variant 6-51 (Fc fusion)
VHH: EVQLVESGGGLVQPGGSLRLSCAASGYTYSSYVMGWFRQAPGKEREFVAAISRFGSTYYADSVKGRFTISADNSKNTAYLQMNSLKPEDTAVYYCARDSGEHFWDSGYIDHWGQGTLVTVSS
B34: variant 6-53 (Fc fusion)
VHH: EVQLVESGGGLVQPGGSLRLSCAASGISINTNVMGWFRQAPGKEREFVAAISTGSVTIYADSVKGRFTISADNSKNTAYLQMNSLKPEDTAVYYCARVDDFGYFDLWGQGTLVTVSS

The binders below were run against T1, Acro SARS-CoV-2 (COVID-19) S1 protein (SARS-CoV-2, UniProt P0DTC2 16-685) (assay: SPR).
T1 construct: also called SARS-CoV-2 S1
B1 was tested, and the Kd was 4070 nM.
With B2 the Kd was 293 nM.
B3 showed a Kd of 51.5 nM.
In the case of B4, the Kd is reported as 144 nM.
B5 gave a Kd of 82.6 nM.
With B6 the Kd was 17.5 nM.
B7 showed a Kd of 51.6 nM.
For B8, the Kd was 44.3 nM.
For B9, the Kd was 102 nM.
Binder B10 has a Kd of 10.1 nM.
Binder B11 has a Kd of 92.8 nM.
Binder B12 has a Kd of 23.6 nM.
Binder B13 has a Kd of 18.1 nM.
With B14 the Kd was 890 nM.
B15 gave a Kd of 58.2 nM.
B16 gave a Kd of 17.9 nM.
B17 showed a Kd of 55.6 nM.
For B18, the Kd was 181 nM.
For B19, the Kd was 43.9 nM.
B20 gave a Kd of 151 nM.
B21 was tested, and the Kd was 114 nM.
For B22, the Kd was 158 nM.
B23 showed a Kd of 45.7 nM.
B24 gave a Kd of 7.1 nM.
In the case of B25, the Kd is reported as 8.2 nM.
B26 showed a Kd of 35.9 nM.
Binder B27 has a Kd of 12.9 nM.
For B28, the Kd was 155 nM.
B29 gave a Kd of 73.9 nM.
Binder B30 has a Kd of 21.8 nM.
Binder B31 has a Kd of 205 nM.
With B32 the Kd was 31.2 nM.
For B33, the Kd was 35.2 nM.
In the case of B34, the Kd is reported as 140 nM.
